Measurements published in IntAct's records for PubMed 29039417.

B1: BBSome complex member BBS2 (Homo sapiens), Q9BXC9 (parent)
chain: MLLPVFTLKLRHKISPRMVAIGRYDGTHPCLAAATQTGKVFIHNPHTRNQHVSASRVFQSPLESDVSLLSINQAVSCLTAGVLNPELGYDALLVGTQTNLLAYDVYNNSDLFYREVADGANAIVLGTLGDISSPLAIIGGNCALQGFNHEGSDLFWTVTGDNVNSLALCDFDGDGKKELLVGSEDFDIRVFKEDEIVAEMTETEIVTSLCPMYGSRFGYALSNGTVGVYDKTSRYWRIKSKNHAMSIHAFDLNSDGVNELITGWSNGKVDARSDRTGEVIFKDNFSSAIAGVVEGDYRMDGHIQLICCSVDGEIRGYLPGTAEMRGNLMDTSAEQDLIRELSQKKQNLLLELRNYEENAKAELASPLNEADGHRGIIPANTRLHTTLSVSLGNETQTAHTELRISTSNDTIIRAVLIFAEGIFTGESHVVHPSIHNLSSSICIPIVPPKDVPVDLHLKAFVGYRSSTQFHVFESTRQLPRFSMYALTSLDPASEPISYVNFTIAERAQRVVVWLGQNFLLPEDTHIQNAPFQVCFTSLRNGGHLHIKIKLSGEITINTDDIDLAGDIIQSMASFFAIEDLQVEADFPVYFEELRKVLVKVDEYHSVHQKLSADMADHSNLIRSLLVGAEDARLMRDMKTMKSRYMELYDLNRDLLNGYKIRCNNHTELLGNLKAVNQAIQRAGRLRVGKPKNQVITACRDAIRSNNINTLFKIMRVGTASS
partner: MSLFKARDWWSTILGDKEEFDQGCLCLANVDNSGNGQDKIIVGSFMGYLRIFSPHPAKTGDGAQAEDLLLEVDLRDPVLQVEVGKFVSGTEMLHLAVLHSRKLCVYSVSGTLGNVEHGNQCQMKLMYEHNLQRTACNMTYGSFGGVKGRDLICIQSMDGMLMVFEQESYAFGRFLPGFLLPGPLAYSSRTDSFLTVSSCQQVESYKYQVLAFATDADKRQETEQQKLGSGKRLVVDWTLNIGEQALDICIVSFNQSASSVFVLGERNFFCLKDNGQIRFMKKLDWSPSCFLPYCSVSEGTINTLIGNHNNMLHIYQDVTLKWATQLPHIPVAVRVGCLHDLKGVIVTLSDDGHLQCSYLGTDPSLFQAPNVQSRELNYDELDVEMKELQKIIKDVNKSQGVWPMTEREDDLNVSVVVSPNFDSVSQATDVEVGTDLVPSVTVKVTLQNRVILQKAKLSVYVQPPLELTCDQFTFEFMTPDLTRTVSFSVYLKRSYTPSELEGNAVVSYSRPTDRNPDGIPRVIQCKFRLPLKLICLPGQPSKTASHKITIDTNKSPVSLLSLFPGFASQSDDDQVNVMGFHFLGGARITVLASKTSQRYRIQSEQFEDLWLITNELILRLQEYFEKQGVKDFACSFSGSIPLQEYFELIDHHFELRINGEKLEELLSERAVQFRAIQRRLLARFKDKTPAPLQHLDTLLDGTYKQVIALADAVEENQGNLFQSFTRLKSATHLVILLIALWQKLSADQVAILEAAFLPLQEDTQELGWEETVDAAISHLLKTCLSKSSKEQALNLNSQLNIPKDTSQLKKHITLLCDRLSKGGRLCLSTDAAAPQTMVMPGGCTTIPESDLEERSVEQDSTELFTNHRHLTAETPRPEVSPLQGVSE

Variants of: B1
Settings: with pthb1_human BBS9, Q3SYG4

Variant	effect of a mutation on the interaction
S605E	with no effect
S605K	with no effect
S605A	with no effect
E591K	with no effect
E591A	with no effect
H617A	with no effect
H617K	with no effect
H617E	with no effect
V606A	with no effect
V606K	with no effect
V606E	with no effect
V598K	with no effect
V598E	with no effect
V598A	with no effect
M614E	with no effect
M614A	with no effect
M614K	with no effect
F590A	with no effect
F590E	with no effect
F590K	with no effect
Y589A	with no effect
Y589K	with no effect
Y589E	with no effect
K599E	with no effect

Variant	effect of a mutation on the interaction
K599A	with no effect
L610K	with no effect
L610E	with no effect
L610A	with no effect
A615K	with no effect
A615E	with no effect
K609E	with no effect
K609A	with no effect
D613K	with no effect
D613A	with no effect
D613E	with no effect
E602A	with no effect
E602K	with no effect
K595E	with no effect
K595A	with no effect
S618A	with no effect
S618K	with no effect
S618E	with no effect
L620E	with no effect
L620A	with no effect
L620K	with no effect
H607A	with no effect
H607K	with no effect
H607E	with no effect

Variant	effect of a mutation on the interaction
L597K	with no effect
L597A	with no effect
L597E	with no effect
D601K	with no effect
D601E	with no effect
D601A	with no effect
V588E	with no effect
V588K	with no effect
V588A	with no effect
V600E	with no effect
V600A	with no effect
V600K	with no effect
L593K	with no effect
L593A	with no effect
L593E	with no effect
P587E	with no effect
P587A	with no effect
P587K	with no effect
S611E	with no effect
S611K	with no effect
S611A	with no effect
A612E	with no effect
A612K	with no effect
Y603K	with no effect

Variant	effect of a mutation on the interaction
Y603A	with no effect
Y603E	with no effect
Q608K	with no effect
Q608A	with no effect
Q608E	with no effect
D616A	with no effect
D616E	with no effect
D616K	with no effect
V596K	with no effect
V596A	with no effect
V596E	with no effect
R594K	with no effect
R594A	with no effect
R594E	with no effect
H604A	with no effect
H604E	with no effect
H604K	with no effect
E592A	with no effect
E592K	with no effect
N619E	with no effect
N619A	with no effect
N619K	with no effect
